# Source: patent US20250152742A1, “COMPOSITIONS AND METHODS FOR NEUROLOGICAL DISEASES” (Trames Bio, Inc., priority 2022, published 2025)
# B1: CODA335: engineered receptor: L131T in SEQ ID NO: 33 (protein)
# chain: MRCSPGGVWLALAASLLHVSLQGEFQRKLYKELVKNYNPLERPVANDSQPLTVYFSLSLLQIMDVDEKNQVLTTNIWLQMSWTDHYLQWNVSEYPGVKTVRFPDGQIWKPDILLYNSADERFDATFHTNVTVNSSGHCQYLPPGIFKSSCPMDLKNFPMDVQTCKLKFGSWSYGGWSLDLQMQEADISGYIPNGEWDLVGIPGKRSERFYECCKEPYPDVTFTVTMRRRMGYYLIQMYIPSLLIVILSWISFWINMDAAPARVGLGITTVLTMTTQSSGSRASLPKVSYVKAIDIWMAVCLLFVFSALLEYAAVNFVSRQHKELLRFRRKRRHHKSPMLNLFQEDEAGEGRFNFSAYGMGPACLQAKDGISVKGANNSNTTNPPPAPSKSPEEMRKLFIQRAKKIDKISRIGFPMAFLIFNMFYWIIYKIVRREDVHNQ
# modifications: synthetic sequence of chimeric LGIC
# System: engineered chimeric receptor SEQ ID NO: 33 and its mutants (human α7-nAChR ligand binding domain / human GlyRα1 ion pore domain) in Lenti-X 293T cells
# Test: YFP fluorescence quenching anion reporter plate reader assay (percent quench, EC50)
# Format: cell-based
# Conditions: for YFP fluorescence quenching using CNL001 (percent quench): receptor named in row; for YFP fluorescence quenching using Varenicline, 3 nM var: ligand Varenicline 3 nM; for YFP fluorescence quenching using Varenicline, 30 nM var: ligand Varenicline 30 nM; for YFP fluorescence quenching using Varenicline, 300 nM var: ligand Varenicline 300 nM; for YFP fluorescence quenching using Varenicline, 500 nM var: ligand Varenicline 500 nM; for YFP fluorescence quenching using Varenicline, 1 uM var: ligand Varenicline 1 uM
# Summary of the method: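 Lenti-X 293T cells co-expressing an anion-quenchable YFP were transiently transfected with receptor DNA, then ligand was added in NaI-substituted buffer (pH 7.2) after 30 min at 37 °C. Fluorescence was read about 2 min; percent quench = mean of last 10 s over 15 s pre-ligand baseline.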
molecule,measurement,setting,value
B1,YFP fluorescence quenching using CNL001 (percent quench),"1 nM CNL001, first column so headed",−9.942%
same,YFP fluorescence quenching using CNL001 (percent quench),"1 nM CNL001, second column so headed",−0.475%
same,YFP fluorescence quenching using TC-5619/Bradanicline (percent quench),1 nM brd (TC-5619/Bradanicline),−2.39%
same,YFP fluorescence quenching using TC-5619/Bradanicline (percent quench),3 nM brd (TC-5619/Bradanicline),−4.08%
same,YFP fluorescence quenching using CNL001 (percent quench),"10 nM CNL001, first column so headed",17.889%
same,YFP fluorescence quenching using CNL001 (percent quench),"10 nM CNL001, second column so headed",38.46%
same,YFP fluorescence quenching using TC-5619/Bradanicline (percent quench),10 nM brd (TC-5619/Bradanicline),−3.3%
same,YFP fluorescence quenching using TC-6683 (percent quench),30 nM TC-6683,−13.84%
same,YFP fluorescence quenching using TC-5619/Bradanicline (percent quench),30 nM brd (TC-5619/Bradanicline),−9.69%
same,YFP fluorescence quenching using CNL001 (percent quench),"50 nM CNL001, first column so headed",61.741%
same,YFP fluorescence quenching using CNL001 (percent quench),"50 nM CNL001, second column so headed",69.159%
same,YFP fluorescence quenching using ABT-126 (percent quench),50 nM abt (ABT-126),−18%
same,YFP fluorescence quenching using CNL001 (percent quench),"100 nM CNL001, first column so headed",73.635%
same,YFP fluorescence quenching using CNL001 (percent quench),"100 nM CNL001, second column so headed",76.092%
same,YFP fluorescence quenching (percent quench),100 nM CNL002,−14.53%
same,YFP fluorescence quenching using ABT-126 (percent quench),100 nM abt (ABT-126),−16.39%
same,YFP fluorescence quenching using AZD-0328 (percent quench),100 nM azd0328,11.33%
same,YFP fluorescence quenching using TC-5619/Bradanicline (percent quench),100 nM brd (TC-5619/Bradanicline),−1.05%
same,YFP fluorescence quenching using TC-6683 (percent quench),300 nM TC-6683,−20.66%
same,YFP fluorescence quenching using ABT-126 (percent quench),300 nM abt (ABT-126),−15.05%
same,YFP fluorescence quenching using AZD-0328 (percent quench),300 nM azd0328,44.15%
same,YFP fluorescence quenching using TC-5619/Bradanicline (percent quench),300 nM brd (TC-5619/Bradanicline),10.53%
same,YFP fluorescence quenching using CNL001 (percent quench),"1 uM CNL001, first column so headed",80.633%
same,YFP fluorescence quenching using CNL001 (percent quench),"1 uM CNL001, second column so headed",79.637%
same,YFP fluorescence quenching (percent quench),1 uM CNL002,6.45%
same,YFP fluorescence quenching using ABT-126 (percent quench),1 uM abt (ABT-126),−5.56%
same,YFP fluorescence quenching using TC-5619/Bradanicline (percent quench),1 uM brd (TC-5619/Bradanicline),34.72%
same,YFP fluorescence quenching using TC-6683 (percent quench),3 uM TC-6683,−17.86%
same,YFP fluorescence quenching (percent quench),10 uM ach (acetylcholine),−9.13%
same,YFP fluorescence quenching (percent quench),30 uM CNL002,57.43%
same,YFP fluorescence quenching using TC-6683 (percent quench),30 uM TC-6683,−18.91%
same,YFP fluorescence quenching using AZD-0328 (percent quench),30 uM azd0328,80.96%
same,YFP fluorescence quenching using TC-6683 (percent quench),100 uM TC-6683,−16.88%
same,YFP fluorescence quenching (percent quench),100 uM ach (acetylcholine),−9.29%
same,YFP fluorescence quenching (percent quench),1 mM ach (acetylcholine),0.57%
same,YFP fluorescence quenching (percent quench),3 mM ach (acetylcholine),35.37%
same,"YFP fluorescence quenching using Facinicline, 30 nM fac",ligand Facinicline 30 nM,1.24
same,"YFP fluorescence quenching using Facinicline, 300 nM fac",ligand Facinicline 300 nM,46.92
same,"YFP fluorescence quenching using Facinicline, 10 uM fac",ligand Facinicline 10 uM,79.06
same,"YFP fluorescence quenching using Facinicline, 30 uM fac",ligand Facinicline 30 uM,81.06
same,"YFP fluorescence quenching using TC-6987, 1 uM tc6987",ligand TC-6987 1 uM,−0.14
same,"YFP fluorescence quenching using TC-6987, 3 uM tc6987",ligand TC-6987 3 uM,−8.32
same,"YFP fluorescence quenching using TC-6987, 5 uM tc6987",ligand TC-6987 5 uM,−2.13
same,"YFP fluorescence quenching using TC-6987, 10 uM tc6987",ligand TC-6987 10 uM,0.13
same,"YFP fluorescence quenching using TC-6987, 30 uM tc6987",ligand TC-6987 30 uM,−6.86
same,"YFP fluorescence quenching using TC-6987, 50 uM tc6987",ligand TC-6987 50 uM,−9.5
same,"YFP fluorescence quenching using TC-6987, 100 uM tc6987",ligand TC-6987 100 uM,−10.98
same,"YFP fluorescence quenching using TC-6987, 300 uM tc6987",ligand TC-6987 300 uM,−12.16
same,"YFP fluorescence quenching using TC-6987, 500 uM tc6987",ligand TC-6987 500 uM,−2.41
same,"YFP fluorescence quenching using Varenicline, 3 nM var",first column,0.398
same,"YFP fluorescence quenching using Varenicline, 3 nM var",second column,3.947
same,"YFP fluorescence quenching using Varenicline, 30 nM var",first column,5.31
same,"YFP fluorescence quenching using Varenicline, 30 nM var",second column,7.666
same,"YFP fluorescence quenching using Varenicline, 300 nM var",first column,4.327
same,"YFP fluorescence quenching using Varenicline, 300 nM var",second column,3.275
same,"YFP fluorescence quenching using Varenicline, 500 nM var",first column,1.835
same,"YFP fluorescence quenching using Varenicline, 500 nM var",second column,4.863
same,"YFP fluorescence quenching using Varenicline, 1 uM var",first column,9.471
same,"YFP fluorescence quenching using Varenicline, 1 uM var",second column,7.505
